Laboratory results reported in US20240199758A1, “METHOD FOR ALLOWING IMMUNE CELLS INFILTRATION IN TUMORS” (Alethia Biotherapeutics Inc., priority 2021, published 2024).
“And” between values parts separate entries of the source, which are not always exact repeats. Equal entries are not always repeated. “Also recorded” adds a separate entry of the source.

B1: murine 16B5: murine anti-clusterin (anti-sCLU) monoclonal antibody 16B5 used in the mouse studies; VL SEQ ID NO:7, VH SEQ ID NO:8 (antibody, V domains shown)
VH: EVQLQQSGAELVKPGASVRLSCTTSGFNIKDIYMHWVKQRPEQGLEWIGRIDPAYGNTKYDPKFQGKATITADTSSNTAYLQLSSLTSEDTAVYYCARRYDTAMDYWGQGTSVTVSS
VL: DIVMSQSPSSLAVSAGEKVTMSCKSSQSLLNSRTRKNYLAWYQQKPGQSPKLLIYWASTRESGVPDRFTGSGSGTDFTLTISSVQAEDLAVYYCKQSYNLWTFGGGTKLEFK
modifications: Murine 16B5 VH; Murine 16B5 VL

Tests used:
Format in all cases: in vivo, Balb/c mice
[1] = system: 4T1 mouse mammary carcinoma cells; assay: 4T1 model: number of metastatic lung nodules; settings: Day 37
Procedure: (§1) Five groups, each consisting of 10 female Balb/c mice were assigned to this study (see Table 5 below). All animals received subcutaneous implantation of 4T1 mouse mammary carcinoma cells in the 4th inguinal mammary gland. Treatment was initiated on the day of implantation (defined as Day 1). Animals from Group 1 (Gr. 1) received IP treatment of saline vehicle control twice a week for the duration of the study. Animals from Group 2 (Gr. 2) received 10 mg/kg of docetaxel weekly for five weeks by IP administration. Animals from Group 3 (Gr. 3) received 10 mg/kg of docetaxel weekly for two weeks and 10 mg/kg of AB-16B5, twice weekly for five weeks. Animals from Group 4 (Gr. 4) received 10 mg/kg of docetaxel weekly and 5 mg/kg of 16B5 twice weekly each over the course of a five weeks treatment. Animals from Group 5 (Gr. 5) received AB-16B5 twice weekly for five weeks. On Day 36, the primary tumors were excised and on Day 37, the animals were sacrificed and the number of grossly visible metastatic nodules on the surface of the lungs was counted.

4T1 primary tumors = assay: 4T1 model: CD45+ immune cells in primary tumors
Procedure: as §1
The primary tumors excised at Day 16 post implantation, were processed with collagenase and hyaluronidase and immune cells were purified by positive selection using magnetic latex beads coated with an anti-CD45 antibody. […]

4T1 lung metastases [2] = assay: 4T1 orthotopic model: immunohistochemistry of lung metastases
From the text: Balb/c mice were orthotopically implanted with 5×10^5 4T1 cells in the 4′ mammary fat pad. Animals received IP saline treatment thrice weekly. The primary tumor was surgically removed at Day 16 post-implantation. The animals were sacrificed at Day 36 and the lungs were excised. Tissues were fixed in paraformaldehyde and processed for paraffin embedding. Tissue sections were probed with anti-mouse CD3, anti-mouse CD8 and anti-mouse B220 antibodies. […] Results presented in FIG. 1 indicate that the 4T1 lung metastases create an immune cold microenvironment which prevents the infiltration of B and T lymphocytes in tumors. Delineated regions indicate that CD3 and CD8 T lymphocytes are restricted in the tumor margin as a consequence of EMT.
Animals bearing 4T1 tumors were treated with the AB-16B5 antibody (murine 16B5) thrice a week IP at 10 mg/kg. The primary tumor was surgically removed at Day 16 post-implantation. The animals were sacrificed at Day 36 and the lungs were excised. Tissues were fixed in paraformaldehyde and processed for paraffin embedding. Tissue sections were probed with anti-mouse CD3, anti-mouse CD8 and anti-mouse B220 antibodies.

4T1 lung metastases [3] = assay: Flow cytometry immunophenotyping of lymphocytes from 4T1 lung metastases; settings: Day 36 post-implantation, FIG. 4A and FIG. 4B
Procedure: (§2) Balb/c mice were orthotopically implanted with 5×10^5 4T1 cells in the 4′ mammary fat pad. Animals received intraperitoneal (IP) AB-16B5 (murine 16B5) 10 mg/kg twice weekly in combination with IP docetaxel 10 mg/kg weekly (Group 15: animals 1501, 1502 and 1503) or IP AB-16B5 10 mg/kg twice weekly (Group 25: […]). The primary tumor was surgically removed at Day 16 post-implantation. The animals were sacrificed at Day 36 and the lungs were excised and each visible lung metastasis was carefully dissected. Each visible metastatic nodule, if any, was excised and processed for a rapid expansion of tumor infiltrating lymphocyte protocol. The metastatic nodules were sectioned into small pieces of 2-3 mm edge that were individually grown in 24 well plates containing culture medium supplemented with FBS, IL2, IL7, ITS (1,000 U/mL IL2, 2.0 ng/mL IL7 and 1× insulin—transferrin—selenium cocktail (Gibco 41400-045)).
The lymphocytes were stimulated with anti-CD3 and anti-CD28 monoclonal antibodies. Lymphocytes from each donor animal were pooled and processed for flow cytometry analysis with antibodies against CD45 (lymphocyte common antigen), CD3, CD4, CD8 and CD19 (B-cell biomarker) (FIG. 4A and FIG. 4B). The resulting single cell preparations were initially selected on their size to select those corresponding to immune cells. […]

4T1 tumor cells = assay: INFγ secretion of tumor infiltrating lymphocytes co-cultured with 4T1 cells (ELISA)
Procedure: as §2
After three weeks in culture, 100,000 cells were taken from each of the lymphocyte cultures (six cultures corresponding to three animals from Group 15 and three animals from Group 25) and placed in culture with 100,000 4T1 tumor cells. After overnight co-culture, the supernatant was recovered for INFγ quantification by ELISA.

[4] = 10 mg/kg IP thrice a week, Day 36

Molecule | metastatic lung nodules ([1]; Group 2: docetaxel 10 mg/kg IP 1X/week for 5 weeks) | CD45+ immune cells in primary tumors (4T1 primary tumors; Group 2: docetaxel 10 mg/kg IP 1X/week) | metastatic lung nodules ([1]; Group 5: AB-16B5 10 mg/kg IP 2X/week for 5 weeks) | infiltration of lung metastases with CD3 and CD8 T cells (4T1 lung metastases [2]; [4]) | plasmocytes penetration in tumors (4T1 lung metastases [2]; [4]) | lung metastases, number and size (4T1 lung metastases [2]; 10 mg/kg IP thrice a week, primary tumor removed Day 16, sacrifice Day 36) | B and T lymphocytes infiltration in 4T1 lung metastases (4T1 lung metastases [2]; FIG. 2A) | infiltration of 4T1 lung metastases by B and T lymphocytes (4T1 lung metastases [3]) | INFγ (4T1 tumor cells; Group 25 (samples 2501-2503, one value per animal): AB-16B5 10 mg/kg IP twice weekly, overnight co-culture with 4T1 cells) | INFγ secretion level of lymphocytes isolated from lung metastatic nodules (4T1 tumor cells; in the presence of 4T1 cells) | CD45+ immune cells in primary tumors (4T1 primary tumors; Group 5: AB-16B5 10 mg/kg IP 2X/week)
CC(=O)O[C@@]12CO[C@@H]1C[C@H](O)[C@@]1(C)C(=O)[C@H](O)C3=C(C)[C@@H](OC(=O)[C@H](O)[C@@H](NC(=O)OC(C)(C)C)c4ccccc4)C[C@@](O)([C@@H](OC(=O)c4ccccc4)[C@H]21)C3(C)C [docetaxel] | as many metastatic lung nodules as the saline control group; also recorded: relatively ineffective | very few CD45+ were present |  |  |  |  |  |  |  |  | 
B1 |  |  | less metastatic lung nodules than the saline-control-treated mice | densely infiltrated with CD3 and CD8 T cells | evidence of plasmocytes penetration | fewer and much smaller lung metastases | Results in B (B220) and T (CD3, CD4, CD8) Lymphocytes Infiltration | infiltrated by B and T lymphocytes | 8538.8 pg/mL and 3770.0 pg/mL and 4538.8 pg/mL | high levels | more immune cells
